The record followed here is PMC3655416 (Developmental cell, 2013).

Data set [1] deals with Purified SAS-5 C-terminus (C. elegans) (UniProt Q20010). In words: SEC-MALS. A general note: In gel filtration, larger molecules generally elute earlier.
Data set [2] addresses T1, Full-length SAS-5, purified, on beads (C. elegans, UniProt Q20010 1-404).
T1 sequence (looked up): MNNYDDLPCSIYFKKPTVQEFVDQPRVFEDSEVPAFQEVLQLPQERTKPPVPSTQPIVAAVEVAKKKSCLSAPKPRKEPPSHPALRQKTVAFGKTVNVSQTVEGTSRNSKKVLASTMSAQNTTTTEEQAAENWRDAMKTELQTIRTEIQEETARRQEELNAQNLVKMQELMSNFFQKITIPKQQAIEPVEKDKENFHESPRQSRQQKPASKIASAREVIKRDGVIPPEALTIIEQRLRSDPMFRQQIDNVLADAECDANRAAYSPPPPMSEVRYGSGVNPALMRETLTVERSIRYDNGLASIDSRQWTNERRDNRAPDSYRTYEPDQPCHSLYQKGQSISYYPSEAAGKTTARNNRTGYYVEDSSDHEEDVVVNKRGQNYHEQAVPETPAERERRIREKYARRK
In words: pull-down.

The data set “SEC” concerns the molecule itself. In words: SEC.

Usually stoichiometry N stands for the number of molecules, sites or subunits per partner or assembly. In data set [1], “Purified SAS-5 C-terminus (from UniProt Q20010 1-404) (domain or fragment)” yielded a stoichiometry N of 2.

B1: Full-length WT SAS-6, purified (natural protein, C. elegans, UniProt O62479 1-492, looked up)
chain: MTSKIALFDQTLIASLLQPLSLNQPDFKAYKTKVKLKISEQRNETSGEKELKFEISRSDDFEFLFSETLNNEKYQILARDHDLTVDFDAFPKVIIQHLLCKNIVKNLEEDGEVDARKKAGYHSIADPGKPTEINIILDAEKNFCSFELFSKTPISKGKIFSIKLHAVRGDHLISHLLKICSSQAVKLSTFYKSADELASLRQKCGDLEKQVEKLSGVKEEFEEMSEKFKELEDEVELVKEERENIRLLVEDKEDEVADLKQDTESLQKQLEENQEELEIVGNMLREEQGKVDQLQKRNVAHQKEIGKLRAELGTAQRNLEKADQLLKRNSQQQNQQSLDMRKLGELEADLKEKDSMVESLTETIGILRKELENEKLKAAENMDSFEKLSMENENLKEKIAHYRAQRFSPAPSGLPGLQTGLTNRLTPSFKPVLGPHTPYGANLNSRTPFRDNTTLNFQNSTIATPHAFRFNSQLIADETTGSSVTNTPPAQR
As for B1, the “stoichiometry N” value in data set [2] is 2 SAS-6:SAS-5.

B2: WT SAS-6^1-389, purified (domain or fragment, C. elegans, UniProt O62479 1-389, looked up)
chain: MTSKIALFDQTLIASLLQPLSLNQPDFKAYKTKVKLKISEQRNETSGEKELKFEISRSDDFEFLFSETLNNEKYQILARDHDLTVDFDAFPKVIIQHLLCKNIVKNLEEDGEVDARKKAGYHSIADPGKPTEINIILDAEKNFCSFELFSKTPISKGKIFSIKLHAVRGDHLISHLLKICSSQAVKLSTFYKSADELASLRQKCGDLEKQVEKLSGVKEEFEEMSEKFKELEDEVELVKEERENIRLLVEDKEDEVADLKQDTESLQKQLEENQEELEIVGNMLREEQGKVDQLQKRNVAHQKEIGKLRAELGTAQRNLEKADQLLKRNSQQQNQQSLDMRKLGELEADLKEKDSMVESLTETIGILRKELENEKLKAAENMDSFEKLS
Take B2: the binding result in the data set “SEC” was “binds”.
